Patent US20100143888

Target: T1, MOC-Arg-Ala-Glu-Leu-Gln-Gly-Pro-Tyr-Asp-Lys-DNP-NH2
T1 chain: RAELQGPYDK

B1: Human Rhinovirus serotype 1A 3C Protease (protein)
chain: GPEEEFGRSILKNNTCVITTGNGKFTGLGIHDRILIIPTHADPGREVQVNGVHTKVLDSYDLYNRDGVKLEITVIQLDRNEKFRDIRKYIPETEDDYPECNLALSANQDEPTIIKVGDVVSYGNILLSGNQTARMLKYNYPTKSGYCGGVLYKIGQILGIHVGGNGRDGFSAMLLRSYFTDTQ
With B1 as the protein, how does the “Km (fluorescence resonance energy transfer protease activity assay)” value read?
The value was “with a Km value of 16.8 µM”.
